This note sets out measurements from article PMC11289669, “BAR502/fibrate conjugates: synthesis, biological evaluation and metabolic profile” (Frontiers in Chemistry, 2024).

No end group written: not given here. Bounds are passed on as bounds.

Data set [1] is described as follows: Microsomal stability in human liver microsomes. Format: in vitro ADME. As to the method: Chemical stability in HCl Buffer, PBS buffer and culture medium (EMEM) was evaluated by LC-MS dissolving compound 1 at 10 μM (final concertation) in cited buffers and injecting aliquots removed from incubations at different time points. Microsomal stability was evaluated employing 50 mM potassium phosphate buffer (pH 7.4) containing 0.15 mg of Human liver microsomes (Sigma-Aldrich, St. Louis, MO, United States) 5 mM MgCl2, 1 mM NADPH, 5 mM glucose 6-phosphate, 0.4 U·mL^−1 glucose 6-phosphate dehydrogenase. Compounds were tested at 1 µM final concentration. Aliquots, removed at different time points, were diluted with ice-cold acetonitrile and analyzed by LC-MS.
(Microsomes from liver hold many membrane-bound enzymes, among them those of drug oxidation.)

In the next data set the test system is U937 cells. Briefly: Pro-inflammatory gene expression (qRT-PCR) in LPS-activated U937 cells. Particulars: LPS 100 ng/mL, 18 h, BAR502 and clofibrate 5 and 10 μM, compound 1 10 μM. Format: cell-based, human. As to the method: U937 cell line were cultured in RPMI 1640 supplemented with 10% FBS, 1% glutamine, and 1% penicillin/streptomycin and were regularly passaged to maintain exponential growth. After 24 h of starvation cells were classically activated with LPS (100 ng/mL; Sigma-Aldrich, St. Louis, MO), and exposed or not to BAR502, clofibrate and compound 1 at the concentration of 5 and 10 μM for 18 h. At the end of the experiment the cells were recovered. Total mRNA extraction from U937 and 3T3.L1 was performed using Tri-Reagent (Zymo Research) and Direct-zolTM RNA MiniPrep w/Zymo-SpinTM IIC Columns (Zymo Research, Irvine, CA). After purification from genomic DNA using DNase I (Thermo Fisher Scientific, Waltham, MA), 1 μg of RNA from each sample was reverse transcribed using Kit […] Basic (Nippon Genetics, […] 20-μL of reaction volume; 50 ng of cDNA was amplified in a 20-μL solution containing 200 nM each primer and 10 μL of PowerUpTM SYBRTM Green Master Mix (Thermo Fisher Scientific, Waltham, MA). All reactions were performed in triplicate using the following thermal cycling conditions: 3 min at 95°C, followed by 40 cycles of 95°C for 15 s, 56°C for 20 s, and 72°C for 30 s, using a QuantStudio 3 system (Applied Biosystems, Foster City, CA). The relative mRNA expression was calculated accordingly to the ΔCt method. Primers were designed using the software PRIMER3 (http://frodo.wi.mit.edu/primer3/) using published data obtained from the NCBI database. The primer used were as following (forward and reverse): hGAPDH (for […]-1β (for [NT], hIL6 (for [NT] hCXCL2 (for [NT] hTNFα; (for [NT], mAdiponectin (for […]ɤ (for [NT], mCebp (for [NT]
For orientation: Quantitative PCR measures a nucleic acid by following its amplification.

The target in a further data set is T1, PPARα LBD GST fused.
T1 sequence (Q07869 whole entry, species assumed, looked up): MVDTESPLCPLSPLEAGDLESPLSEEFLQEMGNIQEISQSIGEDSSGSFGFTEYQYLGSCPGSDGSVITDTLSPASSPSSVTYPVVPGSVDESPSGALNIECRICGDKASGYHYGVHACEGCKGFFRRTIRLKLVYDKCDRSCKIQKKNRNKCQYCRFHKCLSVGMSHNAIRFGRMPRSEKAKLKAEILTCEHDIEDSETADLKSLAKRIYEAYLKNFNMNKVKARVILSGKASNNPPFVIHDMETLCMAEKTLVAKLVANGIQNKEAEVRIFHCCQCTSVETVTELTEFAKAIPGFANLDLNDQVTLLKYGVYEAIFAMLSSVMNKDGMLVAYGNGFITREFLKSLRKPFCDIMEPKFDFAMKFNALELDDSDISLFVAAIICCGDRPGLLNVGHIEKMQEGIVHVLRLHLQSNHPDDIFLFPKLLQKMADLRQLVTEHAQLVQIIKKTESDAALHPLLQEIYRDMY
Briefly: AlphaScreen or HTRF; coactivator recruitment; 20 nM GST-PPARα-LBD, 60 nM biotinylated SRC1 peptide, 20 μg/mL donor and acceptor beads; 50 mM MOPS, 50 mM NaF, 0.05 mM CHAPS, 0.05% BSA, pH 7.4; 25 μL, 384 wells; compounds at 50 μM for efficacy (% vs. fenofibrate). (In general: In Alpha technology, singlet oxygen from a donor bead excites a nearby acceptor bead.)

For another data set, the target named is T2, FXR-LBD GST-fused.
T2 sequence (Q96RI1 whole entry, species assumed, looked up): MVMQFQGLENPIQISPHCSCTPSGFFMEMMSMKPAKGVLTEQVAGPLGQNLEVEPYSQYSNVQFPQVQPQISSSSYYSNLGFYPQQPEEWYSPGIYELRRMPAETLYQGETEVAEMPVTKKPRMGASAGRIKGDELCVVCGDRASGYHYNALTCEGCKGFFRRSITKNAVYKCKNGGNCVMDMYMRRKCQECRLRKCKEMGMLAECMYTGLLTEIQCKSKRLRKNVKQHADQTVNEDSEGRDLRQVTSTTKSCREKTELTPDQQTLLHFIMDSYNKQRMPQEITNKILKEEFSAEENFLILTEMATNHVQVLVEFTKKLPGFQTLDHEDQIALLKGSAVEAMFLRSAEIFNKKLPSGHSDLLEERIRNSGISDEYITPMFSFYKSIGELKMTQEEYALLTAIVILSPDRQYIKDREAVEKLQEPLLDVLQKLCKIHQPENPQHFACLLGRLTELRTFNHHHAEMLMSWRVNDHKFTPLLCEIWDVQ
Briefly: AlphaScreen or HTRF; coactivator recruitment; 10 nM GST-FXR-LBD, 30 nM biotinylated SRC1 peptide, 20 μg/mL donor and acceptor beads; 50 mM Tris-HCl pH 7.4, 20 mM KCl, 1 mM DTT, 0.1% BSA; 25 μL, 384 wells; compounds at 10 μM for efficacy (% vs. CDCA), concentration-response for EC50.

`CCOC(=O)C(C)(C)Oc1ccc(Cl)cc1` [clofibrate]: the “Time to conversion in clofibric acid in human microsomes” value in data set [1] is no more than 30 min. In the data set on U937 cells, the “IL-1β mRNA expression” value was “reducing the expression of pro-inflammatory cytokines” and the “IL-6 mRNA expression” value is given as “reducing the expression of pro-inflammatory cytokines”.
With CPSSHSSLTERHKILHRLLQEGSPS (also: biotin, position not given here) [biotinylated SRC1 peptide], in the data set with PPARα LBD GST fused, the efficacy of SRC-1 recruitment with BAR502 (% vs. fenofibrate) (% vs. fenofibrate) was determined as 36 and the efficacy of SRC-1 recruitment with BAR505 (% vs. fenofibrate) (% vs. fenofibrate) worked out at 40. In the data set with FXR-LBD GST-fused, this molecule had an EC50 of compound 1 for SRC-1 recruitment (the compound is titrated) of 3.4 µM, an EC50 of compound 3 for SRC-1 recruitment (the compound is titrated) of 17.9 µM, an EC50 of the compound BAR502 for SRC-1 recruitment (the compound is titrated) of 0.69 µM and an efficacy of SRC-1 recruitment with BAR502 (% vs. CDCA) of 153 % vs. CDCA. Besides, in the data set with FXR-LBD GST-fused, the efficacy of SRC-1 recruitment with compound 1 (% vs. CDCA) stood at 79 % vs. CDCA and the efficacy of SRC-1 recruitment with compound 3 (% vs. CDCA) was 48 % vs. CDCA.
